For one assay, the target named is T1, 人CLDN18.1(hCLDN18.1) (human, UniProt P56856 1-261).
T1 construct: also called human claudin-18 isoform 1; 密蛋白18.1
T1 sequence: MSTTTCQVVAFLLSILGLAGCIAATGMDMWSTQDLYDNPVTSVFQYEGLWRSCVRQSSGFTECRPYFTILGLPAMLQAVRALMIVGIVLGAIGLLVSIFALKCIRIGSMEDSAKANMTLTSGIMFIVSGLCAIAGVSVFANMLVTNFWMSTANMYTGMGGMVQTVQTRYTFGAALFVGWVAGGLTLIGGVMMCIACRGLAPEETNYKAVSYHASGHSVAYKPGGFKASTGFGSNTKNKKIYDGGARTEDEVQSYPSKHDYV
Briefly: cell ELISA on fixed hCLDN18.1+cell. A general note: An ELISA detects its analyte on a solid surface through an enzyme-linked reagent.

Another assay concerns the target T2, 鼠CLDN18.1(mCLDN18.1) (mouse, UniProt P56857 1-264).
T2 construct: also called mouse claudin-18 isoform A1.1; mCLDN18.1+cell
T2 sequence: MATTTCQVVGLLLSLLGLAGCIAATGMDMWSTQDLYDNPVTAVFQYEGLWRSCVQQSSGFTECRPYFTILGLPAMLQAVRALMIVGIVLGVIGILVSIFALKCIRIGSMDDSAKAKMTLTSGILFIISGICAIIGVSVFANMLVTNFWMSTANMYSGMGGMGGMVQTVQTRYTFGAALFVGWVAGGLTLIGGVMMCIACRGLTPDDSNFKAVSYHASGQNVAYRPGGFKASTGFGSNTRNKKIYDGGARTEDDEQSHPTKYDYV
In words: cell ELISA on fixed mCLDN18.1+cell.

The target in another assay is T3, 鼠CLDN18.2(mCLDN18.2) (mouse, UniProt P56857 10-264).
T3 construct: also called mouse claudin-18 isoform A2.1; mCLDN18.2+cell
T3 chain: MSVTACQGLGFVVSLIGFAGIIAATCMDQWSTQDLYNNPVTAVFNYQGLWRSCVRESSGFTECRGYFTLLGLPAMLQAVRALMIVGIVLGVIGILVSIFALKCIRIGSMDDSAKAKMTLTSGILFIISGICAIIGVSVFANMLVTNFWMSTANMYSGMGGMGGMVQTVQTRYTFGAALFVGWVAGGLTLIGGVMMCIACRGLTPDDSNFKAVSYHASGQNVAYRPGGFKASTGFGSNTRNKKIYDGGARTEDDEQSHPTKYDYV
Briefly: cell ELISA on fixed mCLDN18.2+cell.

The target in assay [1] is T4, 人CLDN18.2(hCLDN18.2) (human, UniProt P56856 24-261). In words: cell-based or functional assay.
Assay [2] concerns the target T4, 人CLDN18.2(hCLDN18.2). Briefly: cell-based or functional assay. The source holds these as a separate data set.

Experimental findings from patent CN111110862A (dated 2020) are described below.

Residue numbers refer to the chain shown, from its start. Read-outs that look alike come from different tables or passages of the source.

B1: anti-hCLDN18.2鼠源抗体mab5b (antibody, human IgG1, kappa, V domains shown)
VH: QVQLQQSGAELIGPGTSVKVSCKASGYAFSNYLIEWVKQRPEQGLEWIGLINPGSGGTNYNEKFKGKATLTADKSSSTAYMQLSSLTSDDSAVYFCARVYYGNSFAYWGQGTLVTVSA
VL: DIVMTQSPSSLTVTAGEKVTMSCKSSQSLLNSGNQKNYLTWYQQKPGQPPKLLIYWASTRESGVPDRFTGSGSGTHFTLTISSVQAEDLAVYYCQNDYFYPFTFGSGTKLEKKR
Take B1: in the assay with 人CLDN18.1(hCLDN18.1), the binding result was “no binding (tested: 200nM)”. Further, in the assay with 鼠CLDN18.1(mCLDN18.1), the binding result is on record as “no binding (tested: 200nM)”. Besides, in the assay with 鼠CLDN18.2(mCLDN18.2), the “fold better binding (EC50) than Ref” value is > 4 fold and the “fold higher Emax than Ref” value is > 1 fold.

B2: Ab24抗体 (antibody, human IgG1, kappa, V domains shown)
VH: QVQLVQSGAEVKKPGSSVKVSCKASGYAFSNYLIEWVRQAPGQGLEWMGLINPGSGGTNYNEKFKGKVTITADKSTSTAYMELSSLRSEDTAVYYCARVYYGNTFAYWGQGTLVTVSS
VL: DIVMTQSPDSLAVSLGERATINCKSSQSLLNTGNNKNYLAWYQQKPGQPPKLLIYWASTRESGVPDRFSGSGSGTDFTLTISSLQAEDVAVYYCQNDYFYPFTFGQGTKLEIKR
On to B2, for which the figures for the “CDC EC50 (LDH release, human serum, hCLDN18.2+ target cells)” value (“CDC EC50” below) with 人CLDN18.2(hCLDN18.2) [1] and with 人CLDN18.2(hCLDN18.2) [2] were 0.255 µg/mL and 1.3 µg/mL, respectively.

B3: Ab51抗体 (antibody, human IgG1, kappa, V domains shown)
VH: B2 VH with K67R, K74E
VL: B2 VL
With B3, the “CDC EC50” value with 人CLDN18.2(hCLDN18.2) [2] amounted to 2.12 µg/mL.

B4: Ab36抗体 (antibody, human IgG1, kappa, V domains shown)
VH: B2 VH with R38K, M48I, V68A
VL: B2 VL with N22S
Turning to B4, the “CDC EC50” value with 人CLDN18.2(hCLDN18.2) [2] worked out at 1.75 µg/mL.
